B1: CSNK1G1 (parent)
chain: GSLPWQGLKADTLKERYQKIGDTK

Variants of: B1
Assay: protein stability index of a GFP-peptide fusion (GPS, HEK-293T) (PSI 1-6); higher = more stable
Details: c terminus: a fixed tail appended
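Further: lentivirally expressed fusions sorted by FACS into six bins by GFP to DsRed ratio, PSI derived from sequencing read proportions per bin multiplied by bin number.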

Protein stability index, by site and new letter:
A10: P 4.39 | S 4.2 | C 3.48 | K 4.28 | L 3.32 | N 4.62 | Y 3.63 | E 4.06 | H 4.11 | Q 4 | M 3.7 | I 3.6 | F 3.5 | V 4.19 | R 4.06 | T 4.48 | D 5.01 | W 3.56 | G 4.46
K9: S 4.2 | L 3.18 | P 5.08 | Y 4.13 | Q 3.89 | D 4.25 | V 3.77 | A 3.71 | H 4.24 | R 4.09 | C 3.93 | I 3.79 | F 3.66 | G 3.9 | N 4.46 | E 4.69 | M 3.87 | W 3.58 | T 4.35
D11: Y 3.44 | Q 3.56 | W 2.9 | F 2.89 | E 4.13 | G 3.8 | S 4.11 | C 3.63 | L 3.76 | R 3.57 | H 3.69 | K 3.93 | M 3.32 | T 3.61 | P 4.11 | A 3.64 | V 2.8 | N 3.37 | I 3.73
T12: I 3.42 | H 3.71 | V 4.2 | G 3.83 | R 4.33 | F 2.86 | K 4.28 | C 4.06 | L 3.37 | S 4.58 | P 4.86 | D 4.68 | E 4.85 | N 4.07 | W 3.27 | A 3.99 | Q 4.19 | Y 3.51 | M 3.94
E15: W 2.77 | S 3.47 | R 3.98 | C 3.37 | Y 3.1 | G 4.07 | Q 4.09 | K 3.29 | V 3.31 | H 3.43 | P 3.97 | I 3.26 | T 3.93 | M 3.51 | L 3.66 | F 3.56 | D 4.25 | N 3.39 | A 3.74
L13: P 4.06 | E 4.66 | M 3.46 | N 4.81 | H 4.64 | D 4.49 | Q 4.47 | Y 3.72 | S 4.62 | V 3.7 | T 4.65 | W 3.05 | C 3.71 | R 4.27 | A 3.96 | G 4.12 | I 4.48 | F 4.2 | K 4.15
R16: C 4.29 | A 4.29 | F 3.98 | G 4.89 | E 4.69 | D 4.54 | H 4.35 | I 3.26
K14: C 3.81 | F 3.13 | A 4.55 | L 3.1 | I 3.75 | R 3.8 | E 4.23 | Q 3.52 | H 4.37 | W 2.74 | Y 3.37 | G 3.08 | P 4.41 | S 3.88 | M 3.36 | N 4.58 | V 4.14 | T 4.09 | D 4.02
L8: T 4.9 | H 4.36 | C 3.35 | P 4.43 | S 4.64 | K 4.17 | W 3.69 | M 4.35 | I 4.13 | E 4.44 | V 4.66 | Y 3.63 | Q 4.24 | F 3.54 | D 4.75 | R 4.32 | N 4.58 | A 3.73 | G 4.76
G7: R 3.56 | V 3.65 | Y 3.49 | W 3.52 | Q 3.9 | S 4.01 | T 3.89

Reference: the supplement of paper PMC10567573
